Measurements as given in US20250155401, “RAPID, SINGLE-STEP AND REAGENTLESS ELECTROCHEMICAL BIOSENSING METHODS, COMPOSITIONS AND DEVICES FOR NANOMOLAR DETECTION OF C-REACTIVE PROTEIN” (Advanced Biomedical Instrumentation Centre Limited, published 2025).

T1: C-reactive protein (CRP) (UniProt P02741 P02741:19-224)
T1 sequence: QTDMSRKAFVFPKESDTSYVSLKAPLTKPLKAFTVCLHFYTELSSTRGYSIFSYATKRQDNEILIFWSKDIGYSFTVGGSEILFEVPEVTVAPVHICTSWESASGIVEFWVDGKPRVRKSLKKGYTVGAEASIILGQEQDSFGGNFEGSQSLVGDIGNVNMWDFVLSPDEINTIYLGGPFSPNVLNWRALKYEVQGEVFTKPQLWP

B1: CRP-targeting aptamer (ssDNA)
DNA: GGCAGGAAGACAAACACGATGGGGGGGTATGATTTGATGTGGTTGTTGCATGATCGTGGTCTGTGGTGCTGT
modifications: 5' thiol modifier (C6-S-S), 3' methylene blue via C7 spacer

Legend:
C-reactive protein (CRP) [1] = target: T1, C-reactive protein (CRP); test: square wave voltammetry; no response up to 500 nM CRP in PBS with 1 mM BSA; conditions: tags: abcam ab167710, HEK 293 expressed, >95% purity; chain copies: 5 (pentamer, stated); label: 3' methylene blue
Experimental: Refer to FIGS. 3A-3E for the following descriptions. To assess specificity of the CRP-targeting aptamer, initial assays are conducted in PBS (1×) buffer supplemented with bovine serum albumin ‘BSA’. Albumin is fixed at a concentration of 1 mM to reflect slightly higher concentrations than those found in serum. Control sensors are prepared in the same fashion as with test sensors using an excised version of the CRP-targeting aptamer sequence without flanking primer regions (FIG. 3D). […] A Limit of detection ‘LOD’ of 105.4 pM is calculated using linear regression, using n=3 independently prepared sensors. […] Here, CRP concentration is reported in molar units and calculate values based on the pentameric isoform weight of 115-120 kDa, as is reported by the commercial supplier and elsewhere.

[2] = target: bovine serum albumin (BSA) (Bos taurus, UniProt P02769 P02769:25-607); test: square wave voltammetry; no observable deviation in response, PBS; conditions: tags: Sigma-Aldrich, lyophilized powder >96%; label: 3' methylene blue
Experimental: (§1) The initial response spike is caused by injection of the analyte. Subsequent stabilisation of the response signal via this testing method occurs over 2-3 minutes. Crucially, significant concentrations of bovine serum albumin, and human serum albumin produce no observable deviation in response, confirming excellent selectivity against serum endogenous proteins that are well known to produce false positives in other sensors formats.

[3] = target: human serum albumin (HSA) (Homo sapiens, UniProt P02768 P02768:25-609); test: as above; conditions: label: 3' methylene blue
Experimental: as §1

C-reactive protein (CRP) [4] = target: T1, C-reactive protein (CRP); test: square wave voltammetry on gold SPE, Hill-Langmuir fit of 48-hour sensor re-use data; BSA-doped PBS with Mg, room temperature not stated; conditions: tags: abcam ab167710, HEK 293 expressed, >95% purity; chain copies: 5 (pentamer, stated); label: 3' methylene blue
Experimental: Refer to FIGS. 4A-4D for the following descriptions. To assess reusability of the prepared aptasensors, dose-response assays are conducted in BSA doped PBS buffer 48 hours after initial testing. Magnesium is used to supplement PBS buffer to more closely match the ion content found in serum with observations showing little difference between results obtained from the initial screening assay. […] Despite these uncertainties, linear range observed for used sensors is broadly maintained. For used sensors, the LOD calculated from linear regression is shown to be approximately 363 pM which matched well with an LOD value of approx. 374 pM derived from non-linear regression fits to the Hill-Langmuir (dose response) function described in section 2.6. Non-Linear fitting is achieved with good fitting (adjusted R₂=0.99). […] Here, concentration is provided in molar units, calculated using the CRP pentameric isoform weight of 120 kDa.

bovine serum albumin (BSA), sequence (P02769 25-607, one chain of several): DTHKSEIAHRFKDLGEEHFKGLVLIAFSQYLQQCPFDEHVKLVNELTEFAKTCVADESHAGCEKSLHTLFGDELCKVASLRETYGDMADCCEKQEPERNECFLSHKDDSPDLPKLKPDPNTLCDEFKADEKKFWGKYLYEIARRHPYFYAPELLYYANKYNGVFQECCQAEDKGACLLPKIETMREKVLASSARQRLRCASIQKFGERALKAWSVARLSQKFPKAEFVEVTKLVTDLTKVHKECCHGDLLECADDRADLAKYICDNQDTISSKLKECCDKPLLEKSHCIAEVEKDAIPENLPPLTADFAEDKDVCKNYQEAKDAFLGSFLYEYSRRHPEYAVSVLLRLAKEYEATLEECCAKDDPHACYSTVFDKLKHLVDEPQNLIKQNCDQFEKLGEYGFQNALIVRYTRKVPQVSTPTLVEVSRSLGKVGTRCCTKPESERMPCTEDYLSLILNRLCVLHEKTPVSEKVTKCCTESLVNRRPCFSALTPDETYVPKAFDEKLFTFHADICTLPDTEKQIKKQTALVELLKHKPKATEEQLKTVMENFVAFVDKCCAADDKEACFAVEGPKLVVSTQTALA
human serum albumin (HSA), sequence (P02768 25-609, one chain of several): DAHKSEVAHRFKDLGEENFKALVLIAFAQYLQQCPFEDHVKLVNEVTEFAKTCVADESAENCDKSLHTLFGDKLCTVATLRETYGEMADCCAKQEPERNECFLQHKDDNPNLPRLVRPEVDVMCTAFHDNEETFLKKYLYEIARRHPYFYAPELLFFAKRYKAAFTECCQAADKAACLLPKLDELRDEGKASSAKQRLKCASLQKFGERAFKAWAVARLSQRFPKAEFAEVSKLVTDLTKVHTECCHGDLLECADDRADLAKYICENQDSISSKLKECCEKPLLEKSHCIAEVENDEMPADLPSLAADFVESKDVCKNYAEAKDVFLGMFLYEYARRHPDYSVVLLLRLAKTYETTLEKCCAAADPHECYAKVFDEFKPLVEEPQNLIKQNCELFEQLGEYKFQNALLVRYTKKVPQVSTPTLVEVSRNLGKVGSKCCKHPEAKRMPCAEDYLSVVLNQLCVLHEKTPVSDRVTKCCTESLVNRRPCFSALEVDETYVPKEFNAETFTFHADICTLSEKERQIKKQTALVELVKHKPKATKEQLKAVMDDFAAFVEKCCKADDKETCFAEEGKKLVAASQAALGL

| Binder | binding result (C-reactive protein (CRP) [1]) | binding result [2] | binding result [3] | Kd (C-reactive protein (CRP) [4]) [nM] |
| --- | --- | --- | --- | --- |
| CGATGGGGGGGTATGATTTGATGTGGTTGTTGCATGATCG (ssDNA, 5' thiol modifier (C6-S-S), 3' methylene blue via C7 spacer) [CRP-targeting aptamer without flanking primer regions (control)] | no binding |  |  |  |
| B1 |  | no binding | no binding | 55.4 |
